Data from PMC3212559, “Large-Scale Protein-Protein Interaction Analysis in Arabidopsis Mesophyll Protoplasts by Split Firefly Luciferase Complementation” (PLoS ONE, 2011).

What was measured:
Test in all cases: split reporter (BiFC, NanoBiT); SFLC in living Arabidopsis mesophyll protoplasts: Aux/IAA-FLucN or MYB30-FLucN co-expressed with ARFCTD-FLucC or Aux/IAA-FLucC for 6 hr; 10 µg of each construct, 2×10^4 cells, 96-well plate, D-luciferin; relative activity standardised against ARF5CTD-FLucC + IAA28-FLucN
Details in all cases: partners not purified
IAA3-FLucC = molecular target: T1, IAA3-FLucC (Arabidopsis, UniProt Q38822 1-189)
T1 construct: Arabidopsis Aux/IAA protein IAA3; also called Aux/IAA-FLucC; source: Arabidopsis mesophyll protoplasts, transfected, in living cells; not shown: FLucC (firefly luciferase aa 394-550)
T1 sequence (looked up): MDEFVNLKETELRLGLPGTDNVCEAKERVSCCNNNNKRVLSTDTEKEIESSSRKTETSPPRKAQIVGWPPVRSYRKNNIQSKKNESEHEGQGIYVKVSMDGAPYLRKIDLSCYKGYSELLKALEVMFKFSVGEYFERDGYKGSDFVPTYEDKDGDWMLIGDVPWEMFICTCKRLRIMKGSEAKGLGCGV

IAA18-FLucC = molecular target: T2, IAA18-FLucC (Arabidopsis, UniProt O24408 1-267)
T2 construct: Arabidopsis Aux/IAA protein IAA18; also called Aux/IAA-FLucC; source: Arabidopsis mesophyll protoplasts, transfected, in living cells; not shown: FLucC (firefly luciferase aa 394-550)
T2 sequence (looked up): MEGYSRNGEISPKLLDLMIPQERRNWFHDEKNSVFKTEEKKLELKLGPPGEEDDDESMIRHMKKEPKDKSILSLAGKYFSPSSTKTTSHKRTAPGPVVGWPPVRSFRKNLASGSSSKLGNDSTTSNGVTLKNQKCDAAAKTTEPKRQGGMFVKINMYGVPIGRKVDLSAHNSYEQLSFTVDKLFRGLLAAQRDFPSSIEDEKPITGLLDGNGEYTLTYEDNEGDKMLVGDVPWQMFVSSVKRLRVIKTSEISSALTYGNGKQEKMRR

[1] = molecular target: T3, ARF12 C-terminal domain (CTD)-FLucC (Arabidopsis, UniProt Q9XID4 511-593)
T3 construct: Arabidopsis auxin response factor 12, C-terminal dimerization domain (CTD); In the ARF-ARF tests the same CTD stood both as ARFCTD-FLucC and as ARFCTD-FLucN; one molecule for both; also called ARF12CTD-FLucC; ARFCTD-FLucC; source: Arabidopsis mesophyll protoplasts, transfected, in living cells; not shown: FLucC (firefly luciferase aa 394-550)
T3 sequence (looked up): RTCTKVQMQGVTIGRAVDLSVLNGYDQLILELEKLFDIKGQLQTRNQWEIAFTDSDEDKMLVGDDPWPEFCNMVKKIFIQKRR

IAA12-FLucC = molecular target: T4, IAA12-FLucC (Arabidopsis, UniProt Q38830 1-239)
T4 construct: Arabidopsis Aux/IAA protein IAA12; also called Aux/IAA-FLucC; source: Arabidopsis mesophyll protoplasts, transfected, in living cells; not shown: FLucC (firefly luciferase aa 394-550)
T4 sequence (looked up): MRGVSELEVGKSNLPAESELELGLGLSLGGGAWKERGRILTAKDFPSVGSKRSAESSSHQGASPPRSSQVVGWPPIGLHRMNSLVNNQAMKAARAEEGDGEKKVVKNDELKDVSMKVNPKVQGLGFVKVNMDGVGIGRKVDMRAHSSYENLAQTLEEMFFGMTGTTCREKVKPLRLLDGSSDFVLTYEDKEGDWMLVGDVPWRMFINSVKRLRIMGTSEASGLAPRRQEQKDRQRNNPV

IAA13-FLucC = molecular target: T5, IAA13-FLucC (Arabidopsis, UniProt Q38831 1-247)
T5 construct: Arabidopsis Aux/IAA protein IAA13; also called Aux/IAA-FLucC; source: Arabidopsis mesophyll protoplasts, transfected, in living cells; not shown: FLucC (firefly luciferase aa 394-550)
T5 sequence (looked up): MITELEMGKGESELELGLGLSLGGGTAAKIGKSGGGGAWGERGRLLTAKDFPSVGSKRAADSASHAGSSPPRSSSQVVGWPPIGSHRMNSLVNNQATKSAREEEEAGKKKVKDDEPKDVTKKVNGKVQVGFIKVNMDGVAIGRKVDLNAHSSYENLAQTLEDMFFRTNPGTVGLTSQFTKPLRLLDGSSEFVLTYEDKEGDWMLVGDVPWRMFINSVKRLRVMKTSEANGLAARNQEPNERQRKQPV

Measured: relative luciferase activity (standardised against ARF5CTD-FLucC + IAA28-FLucN)

B1: MYB30-FLucN (natural protein, UniProt Q9SCU7 1-323, looked up)
chain: MVRPPCCDKGGVKKGPWTPEEDIILVTYIQEHGPGNWRAVPTNTGLLRCSKSCRLRWTNYLRPGIKRGNFTEHEEKMIVHLQALLGNRWAAIASYLPQRTDNDIKNYWNTHLKKKLNKVNQDSHQELDRSSLSSSPSSSSANSNSNISRGQWERRLQTDIHLAKKALSEALSPAVAPIITSTVTTTSSSAESRRSTSSASGFLRTQETSTTYASSTENIAKLLKGWVKNSPKTQNSADQIASTEVKEVIKSDDGKECAGAFQSFSEFDHSYQQAGVSPDHETKPDITGCCSNQSQWSLFEKWLFEDSGGQIGDILLDENTNFF
notes: transcription factor MYB30, the unrelated protein used as negative control; source: Arabidopsis mesophyll protoplasts, transfected, in living cells; not shown: FLucN (firefly luciferase aa 1-398)
< 0.1: all assays above
